Laboratory results taken from patent publication US9205132B2, “Method of lowering mortality” (CORTHERA, INC., priority 2008, dated 2015).
Entries after “also recorded” stand apart in the source; their conditions may differ. Marks after values point to notes of the source that are not given here.

Legend:
[1] = test system: patients with acute heart failure (AHF); assay: Safety endpoints (adverse events, blood pressure, renal impairment, clinical laboratory), Pre-RELAX-AHF trial; assay type: in vivo, human; conditions: for change from baseline in mean hematocrit at 48 hours: described as transient decrease; for Total number of SAEs: to Day 30
Procedure: Study Procedures. The study was approved by the relevant ethics committees, institutional review hoards and regulatory authorities, and conducted under the International Conference on Harmonization Good Clinical Practice guidelines. All patients provided informed written consent prior to participation. […] The placebo used for the study was the same solution as the diluent used to prepare the 100 μg/kg/day dose. The randomization ratio was 3:2:2:2:2, respectively, Relaxin (Corthera, San Mateo, Calif.) was manufactured using recombinant techniques and was identical to the naturally-occurring peptide hormone. By protocol, the study drug infusion was to be terminated if the patient's SBP was reduced to <100 mmHg or by >40 mmHg compared to baseline in two successive measurements, 15 minutes apart. Investigators were not prohibited from utilizing any standard medication, thought necessary to treat patients enrolled in the study, including additional vasodilators, following a 4-hour washout period during which time IV vasodilators, IV pure inotropes and meals were withheld, hemodynamic, renal, and clinical responses to 48 hours of study drug infusion were assessed.
Study Endpoints. […] 4.) Length of initial hospital stay.

[2] = test system: patients with systemic sclerosis; assay: Clinical trial of relaxin in patients with systemic sclerosis, continuous SQ infusion for six months; assay type: in vivo, human
From the text: Overview. Clinical trials with relaxin have also been conducted on systemic sclerosis patients, 257 human subjects who suffer from systemic sclerosis, a serious fibrotic disease, have been treated with relaxin by continuous and subcutaneous (SQ) infusion for six months. […] These findings support the hypothesis that relaxin administration was associated with balanced systemic and renal vasodilation.

Substance: Relaxin
- SAE to Day 30: Hypotension, n (%) ([1]; 30 mcg/kg/d IV 48 h): 0 n (%)
- SAE to Day 30: Noncardiac chest pain, n (%) ([1]; 30 mcg/kg/d IV 48 h): 0 n (%)
- SAE to Day 30: Pneumonia, n (%) ([1]; 30 mcg/kg/d IV 48 h): 3 (7.1%) n (%)
- SAE to Day 30: Renal failure, n (%) ([1]; 30 mcg/kg/d IV 48 h): 1 (2.4%) n (%)
- SAE to Day 30: Urinary retention, n (%) ([1]; 30 mcg/kg/d IV 48 h): 0 n (%)
- SAE to Day 30: Urinary tract infection, n (%) ([1]; 30 mcg/kg/d IV 48 h): 1 (2.4%) n (%)
- SAE to Day 30: Ventricular fibrillation, n (%) ([1]; 30 mcg/kg/d IV 48 h): 0 n (%)
- mean change in creatinine from baseline at Day 14 ([1]; 30 mcg/kg/d IV 48 h): 0.13 ± 0.49 mg/dL
- mean decrease in SBP compared to placebo during infusion ([1]; 30 mcg/kg/d IV 48 h): 3-4 mmHg
- patients requiring treatment of blood pressure reduction ([1]; 30 mcg/kg/d IV 48 h): None of the patients
- proportion of patients at Day 14 with an increase in creatinine of 0.3 mg/dL or more ([1]; 30 mcg/kg/d IV 48 h): 26.3%
- change from baseline in mean hematocrit at 48 hours ([1]; 30 mcg/kg/d IV 48 h): 1.45%
- Patients with any AE from Day 15 to Day 30, n (%) ([1]; 100 mcg/kg/d IV 48 h): 2 (5.3%) n (%)
- Patients with any SAEs to Day 30, n (%) ([1]; 100 mcg/kg/d IV 48 h): 3 (7.9%) n (%)
- Patients with any adverse events to Day 30, n (%) ([1]; 100 mcg/kg/d IV 48 h): 24 (63.2%) n (%)
- Protocol-specified study drug discontinuation due to blood pressure reduction ([1]; 100 mcg/kg/d IV 48 h): 7.9%
- Renal impairment: Patients with ≧0.3 mg/dL increase in creatinine at Day 5 ([1]; 100 mcg/kg/d IV 48 h): 9 (26.5%) n (%)
- Renal impairment: Patients with ≧0.3 mg/dL increase in creatinine at Day 5 and Day 14 ([1]; 100 mcg/kg/d IV 48 h): 4 (10.8%) n (%)
- Renal impairment: Patients with ≧25% increase in creatinine at Day 5 ([1]; 100 mcg/kg/d IV 48 h): 11 (29.7%) * n (%)
- SAE to Day 30: Acute respiratory failure, n (%) ([1]; 100 mcg/kg/d IV 48 h): 1 (2.6%) n (%)
- SAE to Day 30: Bronchitis, n (%) ([1]; 100 mcg/kg/d IV 48 h): 0 n (%)
- SAE to Day 30: Cardiac failure, n (%) ([1]; 100 mcg/kg/d IV 48 h): 0 n (%)
- SAE to Day 30: Cerebrovascular accident, n (%) ([1]; 100 mcg/kg/d IV 48 h): 0 n (%)
- SAE to Day 30: Hypotension, n (%) ([1]; 100 mcg/kg/d IV 48 h): 0 n (%)
- SAE to Day 30: Noncardiac chest pain, n (%) ([1]; 100 mcg/kg/d IV 48 h): 0 n (%)
- SAE to Day 30: Pneumonia, n (%) ([1]; 100 mcg/kg/d IV 48 h): 0 n (%)
- SAE to Day 30: Renal failure, n (%) ([1]; 100 mcg/kg/d IV 48 h): 0 n (%)
- SAE to Day 30: Urinary retention, n (%) ([1]; 100 mcg/kg/d IV 48 h): 2 (5.3%) n (%)
- SAE to Day 30: Urinary tract infection, n (%) ([1]; 100 mcg/kg/d IV 48 h): 0 n (%)
- SAE to Day 30: Ventricular fibrillation, n (%) ([1]; 100 mcg/kg/d IV 48 h): 0 n (%)
- mean change in creatinine from baseline at Day 14 ([1]; 100 mcg/kg/d IV 48 h): 0.08 ± 0.39 mg/dL
- mean decrease in SBP compared to placebo during infusion ([1]; 100 mcg/kg/d IV 48 h): 3-4 mmHg
- proportion of patients at Day 14 with an increase in creatinine of 0.3 mg/dL or more ([1]; 100 mcg/kg/d IV 48 h): 24.2%
- change from baseline in mean hematocrit at 48 hours ([1]; 100 mcg/kg/d IV 48 h): 0.25%
- Patients with any AE from Day 15 to Day 30, n (%) ([1]; 250 mcg/kg/d IV 48 h): 3 (6.1%) n (%)
- Patients with any SAEs to Day 30, n (%) ([1]; 250 mcg/kg/d IV 48 h): 8 (16.3%) n (%)
- Patients with any adverse events to Day 30, n (%) ([1]; 250 mcg/kg/d IV 48 h): 25 (51.0%) n (%)
- Protocol-specified study drug discontinuation due to blood pressure reduction ([1]; 250 mcg/kg/d IV 48 h): 16.3%
- Renal impairment: Patients with ≧0.3 mg/dL increase in creatinine at Day 5 ([1]; 250 mcg/kg/d IV 48 h): 10 (22.7%) n (%)
- Renal impairment: Patients with ≧0.3 mg/dL increase in creatinine at Day 5 and Day 14 ([1]; 250 mcg/kg/d IV 48 h): 7 (15.2%) + n (%)
- Renal impairment: Patients with ≧25% increase in creatinine at Day 5 ([1]; 250 mcg/kg/d IV 48 h): 12 (25.5%) n (%)
- SAE to Day 30: Acute respiratory failure, n (%) ([1]; 250 mcg/kg/d IV 48 h): 0 n (%)
- SAE to Day 30: Bronchitis, n (%) ([1]; 250 mcg/kg/d IV 48 h): 1 (2.0%) n (%)
- SAE to Day 30: Cardiac failure, n (%) ([1]; 250 mcg/kg/d IV 48 h): 2 (6.1%) n (%)
- SAE to Day 30: Cerebrovascular accident, n (%) ([1]; 250 mcg/kg/d IV 48 h): 0 n (%)
- SAE to Day 30: Hypotension, n (%) ([1]; 250 mcg/kg/d IV 48 h): 2 (4.1%) n (%)
- SAE to Day 30: Noncardiac chest pain, n (%) ([1]; 250 mcg/kg/d IV 48 h): 1 (2.0%) n (%)
- SAE to Day 30: Pneumonia, n (%) ([1]; 250 mcg/kg/d IV 48 h): 0 n (%)
- SAE to Day 30: Renal failure, n (%) ([1]; 250 mcg/kg/d IV 48 h): 0 n (%)
- SAE to Day 30: Urinary retention, n (%) ([1]; 250 mcg/kg/d IV 48 h): 0 n (%)
- SAE to Day 30: Urinary tract infection, n (%) ([1]; 250 mcg/kg/d IV 48 h): 1 (2.0%) n (%)
- SAE to Day 30: Ventricular fibrillation, n (%) ([1]; 250 mcg/kg/d IV 48 h): 0 n (%)
- mean change in creatinine from baseline at Day 14 ([1]; 250 mcg/kg/d IV 48 h): 0.10 ± 0.39 mg/dL
- proportion of patients at Day 14 with an increase in creatinine of 0.3 mg/dL or more ([1]; 250 mcg/kg/d IV 48 h): 37.2%
- change from baseline in mean hematocrit at 48 hours ([1]; 250 mcg/kg/d IV 48 h): 0.64%
- renal toxicity ([1]; AHF and/or acute vascular failure patients): low to no renal toxicity
- safety and tolerability ([1]; AHF patients, all doses): no safety or tolerability issues
- hypotension in patients with baseline SBP below the median ([1]; FIGS. 22A and 22B): does not cause deleterious hypotension
- trough SBP ([1]; all cases with blood pressure reduction): ≥ 80 mmHg
- mean change in pulse from baseline through day 14 ([1]; all relaxin groups vs placebo, FIG. 20): not chronotropic
- average decrease in systolic blood pressure over all time points during infusion vs placebo ([1]; all relaxin groups, FIG. 21): did not differ
- patients who received intravenous fluids for hypotension ([1]; four relaxin-treated groups together (5 patients)): 3.0%
- patients with SBP reductions in whom SBP stabilized or rose with no therapy after discontinuation of study drug ([1]; relaxin-treated patients, all doses): 18 of 23
- Total number of SAEs ([1]; 10 mcg/kg/d IV 48 h): 8
- Total number of SAEs ([1]; 30 mcg/kg/d IV 48 h): 12
- Total number of SAEs ([1]; 100 mcg/kg/d IV 48 h): 3
- Total number of SAEs ([1]; 250 mcg/kg/d IV 48 h): 11
- blood pressure [2]: stable decreases in blood pressure
- hypotensive events [2]: did not experience any serious hypotensive events; also recorded: None of the patients developed hypotension during dosing
- predicted creatinine clearance (renal function) [2]: statistically significant increase in predicted creatinine clearance; also recorded: stable improvement in renal function
